Where a chain is given by its changes, count along the chain named. *1 amine or outer side, *2 acyl side, *3 side chain or, on linkers, in order; H or OH if unused. Side-chain parts run from the residue outwards. [ ]: non-standard residue; d: D form. The star is where a group is joined. C20 diacid = O=C(O)CCCCCCCCCCCCCCCCCCC(=O)*; C18 diacid = O=C(O)CCCCCCCCCCCCCCCCC(=O)*; γGlu = O=C(O)[C@H](CCC(=O)[*:2])N[*:1]; εLys = N[C@@H](CCCCN[*:1])C(=O)[*:2]; Stearoyl = CCCCCCCCCCCCCCCCCC(=O)*; AEEA = NCCOCCOCC(=O)O; Aib = CC(C)(N)C(=O)O
T1: human GLP-2 receptor (hGLP2-R) (human, UniProt O95838 1-553)
T1 sequence (looked up): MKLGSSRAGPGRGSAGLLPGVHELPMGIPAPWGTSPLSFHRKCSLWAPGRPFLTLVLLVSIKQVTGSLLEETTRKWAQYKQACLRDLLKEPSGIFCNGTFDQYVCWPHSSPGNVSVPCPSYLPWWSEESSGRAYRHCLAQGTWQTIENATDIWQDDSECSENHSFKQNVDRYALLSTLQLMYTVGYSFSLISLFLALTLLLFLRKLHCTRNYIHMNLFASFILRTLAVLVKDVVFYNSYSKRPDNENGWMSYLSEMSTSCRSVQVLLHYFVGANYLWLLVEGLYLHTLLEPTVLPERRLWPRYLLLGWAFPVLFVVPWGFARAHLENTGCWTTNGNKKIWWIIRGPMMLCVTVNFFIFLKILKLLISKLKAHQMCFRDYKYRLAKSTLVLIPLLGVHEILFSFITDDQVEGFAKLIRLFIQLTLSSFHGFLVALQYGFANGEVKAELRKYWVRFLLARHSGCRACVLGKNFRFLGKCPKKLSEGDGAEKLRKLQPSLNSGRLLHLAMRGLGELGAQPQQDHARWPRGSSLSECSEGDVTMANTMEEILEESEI

B1: Compound 39 (peptide)
peptide: HXEGTFTSELATILDEQAARDFIAWLIAHKITDXXXXXXX
HELM: PEPTIDE1{H.[Aib].E.G.T.F.T.S.E.L.A.T.I.L.D.E.Q.A.A.R.D.F.I.A.W.L.I.A.H.K.I.T.D.[dK].[dK].[dK].[dK].[dK].[dK].[am]}|PEPTIDE2{[O=C(O)CCCCCCCCCCCCCCCCC(=O)[*:2]].[gGlu]}$PEPTIDE1,PEPTIDE2,39:R3-2:R2$$$V2.0
SMILES: CC[C@H](C)[C@H](NC(=O)[C@H](CC(C)C)NC(=O)[C@H](Cc1c[nH]c2ccccc12)NC(=O)[C@H](C)NC(=O)[C@@H](NC(=O)[C@H](Cc1ccccc1)NC(=O)[C@H](CC(=O)O)NC(=O)[C@H](CCCNC(=N)N)NC(=O)[C@H](C)NC(=O)[C@H](C)NC(=O)[C@H](CCC(N)=O)NC(=O)[C@H](CCC(=O)O)NC(=O)[C@H](CC(=O)O)NC(=O)[C@H](CC(C)C)NC(=O)[C@@H](NC(=O)[C@@H](NC(=O)[C@H](C)NC(=O)[C@H](CC(C)C)NC(=O)[C@H](CCC(=O)O)NC(=O)[C@H](CO)NC(=O)[C@@H](NC(=O)[C@H](Cc1ccccc1)NC(=O)[C@@H](NC(=O)CNC(=O)[C@H](CCC(=O)O)NC(=O)C(C)(C)NC(=O)[C@@H](N)Cc1c[nH]cn1)[C@@H](C)O)[C@@H](C)O)[C@@H](C)O)[C@@H](C)CC)[C@@H](C)CC)C(=O)N[C@@H](C)C(=O)N[C@@H](Cc1c[nH]cn1)C(=O)N[C@@H](CCCCN)C(=O)N[C@H](C(=O)N[C@H](C(=O)N[C@@H](CC(=O)O)C(=O)N[C@H](CCCCN)C(=O)N[C@H](CCCCN)C(=O)N[C@H](CCCCN)C(=O)N[C@H](CCCCN)C(=O)N[C@H](CCCCN)C(=O)N[C@H](CCCCNC(=O)CC[C@H](NC(=O)CCCCCCCCCCCCCCCCC(=O)O)C(=O)O)C(N)=O)[C@@H](C)O)[C@@H](C)CC
B2: Compound 40 (peptide)
peptide: B1 peptide with T5S, A28E
HELM: PEPTIDE1{H.[Aib].E.G.S.F.T.S.E.L.A.T.I.L.D.E.Q.A.A.R.D.F.I.A.W.L.I.E.H.K.I.T.D.[dK].[dK].[dK].[dK].[dK].[dK].[am]}|PEPTIDE2{[O=C(O)CCCCCCCCCCCCCCCCC(=O)[*:2]].[gGlu]}$PEPTIDE1,PEPTIDE2,39:R3-2:R2$$$V2.0
SMILES: CC[C@H](C)[C@H](NC(=O)[C@H](Cc1ccccc1)NC(=O)[C@H](CC(=O)O)NC(=O)[C@H](CCCNC(=N)N)NC(=O)[C@H](C)NC(=O)[C@H](C)NC(=O)[C@H](CCC(N)=O)NC(=O)[C@H](CCC(=O)O)NC(=O)[C@H](CC(=O)O)NC(=O)[C@H](CC(C)C)NC(=O)[C@@H](NC(=O)[C@@H](NC(=O)[C@H](C)NC(=O)[C@H](CC(C)C)NC(=O)[C@H](CCC(=O)O)NC(=O)[C@H](CO)NC(=O)[C@@H](NC(=O)[C@H](Cc1ccccc1)NC(=O)[C@H](CO)NC(=O)CNC(=O)[C@H](CCC(=O)O)NC(=O)C(C)(C)NC(=O)[C@@H](N)Cc1c[nH]cn1)[C@@H](C)O)[C@@H](C)O)[C@@H](C)CC)C(=O)N[C@@H](C)C(=O)N[C@@H](Cc1c[nH]c2ccccc12)C(=O)N[C@@H](CC(C)C)C(=O)N[C@H](C(=O)N[C@@H](CCC(=O)O)C(=O)N[C@@H](Cc1c[nH]cn1)C(=O)N[C@@H](CCCCN)C(=O)N[C@H](C(=O)N[C@H](C(=O)N[C@@H](CC(=O)O)C(=O)N[C@H](CCCCN)C(=O)N[C@H](CCCCN)C(=O)N[C@H](CCCCN)C(=O)N[C@H](CCCCN)C(=O)N[C@H](CCCCN)C(=O)N[C@H](CCCCNC(=O)CC[C@H](NC(=O)CCCCCCCCCCCCCCCCC(=O)O)C(=O)O)C(N)=O)[C@@H](C)O)[C@@H](C)CC)[C@@H](C)CC
B3: Compound 42 (peptide)
peptide: H-H[Aib]EGSFTSEK([AEEA-AEEA-γGlu-C20 diacid])ATILDEQAARDFIAWLIEHKITD-OH
SMILES: CC[C@H](C)[C@H](NC(=O)[C@H](Cc1ccccc1)NC(=O)[C@H](CC(=O)O)NC(=O)[C@H](CCCNC(=N)N)NC(=O)[C@H](C)NC(=O)[C@H](C)NC(=O)[C@H](CCC(N)=O)NC(=O)[C@H](CCC(=O)O)NC(=O)[C@H](CC(=O)O)NC(=O)[C@H](CC(C)C)NC(=O)[C@@H](NC(=O)[C@@H](NC(=O)[C@H](C)NC(=O)[C@H](CCCCNC(=O)COCCOCCNC(=O)COCCOCCNC(=O)CC[C@H](NC(=O)CCCCCCCCCCCCCCCCCCC(=O)O)C(=O)O)NC(=O)[C@H](CCC(=O)O)NC(=O)[C@H](CO)NC(=O)[C@@H](NC(=O)[C@H](Cc1ccccc1)NC(=O)[C@H](CO)NC(=O)CNC(=O)[C@H](CCC(=O)O)NC(=O)C(C)(C)NC(=O)[C@@H](N)Cc1c[nH]cn1)[C@@H](C)O)[C@@H](C)O)[C@@H](C)CC)C(=O)N[C@@H](C)C(=O)N[C@@H](Cc1c[nH]c2ccccc12)C(=O)N[C@@H](CC(C)C)C(=O)N[C@H](C(=O)N[C@@H](CCC(=O)O)C(=O)N[C@@H](Cc1c[nH]cn1)C(=O)N[C@@H](CCCCN)C(=O)N[C@H](C(=O)N[C@H](C(=O)N[C@@H](CC(=O)O)C(=O)O)[C@@H](C)O)[C@@H](C)CC)[C@@H](C)CC
B4: Compound 35 (peptide)
peptide: H-H[Aib]EGSFTSELATILDK([AEEA-AEEA-AEEA-εLys-C20 diacid])QAARDFIAWLIQQKITD-OH
SMILES: CC[C@H](C)[C@H](NC(=O)[C@H](Cc1ccccc1)NC(=O)[C@H](CC(=O)O)NC(=O)[C@H](CCCNC(=N)N)NC(=O)[C@H](C)NC(=O)[C@H](C)NC(=O)[C@H](CCC(N)=O)NC(=O)[C@H](CCCCNC(=O)COCCOCCNC(=O)COCCOCCNC(=O)COCCOCCNC(=O)[C@@H](N)CCCCNC(=O)CCCCCCCCCCCCCCCCCCC(=O)O)NC(=O)[C@H](CC(=O)O)NC(=O)[C@H](CC(C)C)NC(=O)[C@@H](NC(=O)[C@@H](NC(=O)[C@H](C)NC(=O)[C@H](CC(C)C)NC(=O)[C@H](CCC(=O)O)NC(=O)[C@H](CO)NC(=O)[C@@H](NC(=O)[C@H](Cc1ccccc1)NC(=O)[C@H](CO)NC(=O)CNC(=O)[C@H](CCC(=O)O)NC(=O)C(C)(C)NC(=O)[C@@H](N)Cc1c[nH]cn1)[C@@H](C)O)[C@@H](C)O)[C@@H](C)CC)C(=O)N[C@@H](C)C(=O)N[C@@H](Cc1c[nH]c2ccccc12)C(=O)N[C@@H](CC(C)C)C(=O)N[C@H](C(=O)N[C@@H](CCC(N)=O)C(=O)N[C@@H](CCC(N)=O)C(=O)N[C@@H](CCCCN)C(=O)N[C@H](C(=O)N[C@H](C(=O)N[C@@H](CC(=O)O)C(=O)O)[C@@H](C)O)[C@@H](C)CC)[C@@H](C)CC
B5: Compound 36 (peptide)
peptide: H-H[Aib]EGSFTSELATILDK(Stearoyl)QAARDFIAWLIQYKITD-OH
SMILES: CCCCCCCCCCCCCCCCCC(=O)NCCCC[C@H](NC(=O)[C@H](CC(=O)O)NC(=O)[C@H](CC(C)C)NC(=O)[C@@H](NC(=O)[C@@H](NC(=O)[C@H](C)NC(=O)[C@H](CC(C)C)NC(=O)[C@H](CCC(=O)O)NC(=O)[C@H](CO)NC(=O)[C@@H](NC(=O)[C@H](Cc1ccccc1)NC(=O)[C@H](CO)NC(=O)CNC(=O)[C@H](CCC(=O)O)NC(=O)C(C)(C)NC(=O)[C@@H](N)Cc1c[nH]cn1)[C@@H](C)O)[C@@H](C)O)[C@@H](C)CC)C(=O)N[C@@H](CCC(N)=O)C(=O)N[C@@H](C)C(=O)N[C@@H](C)C(=O)N[C@@H](CCCNC(=N)N)C(=O)N[C@@H](CC(=O)O)C(=O)N[C@@H](Cc1ccccc1)C(=O)N[C@H](C(=O)N[C@@H](C)C(=O)N[C@@H](Cc1c[nH]c2ccccc12)C(=O)N[C@@H](CC(C)C)C(=O)N[C@H](C(=O)N[C@@H](CCC(N)=O)C(=O)N[C@@H](Cc1ccc(O)cc1)C(=O)N[C@@H](CCCCN)C(=O)N[C@H](C(=O)N[C@H](C(=O)N[C@@H](CC(=O)O)C(=O)O)[C@@H](C)O)[C@@H](C)CC)[C@@H](C)CC)[C@@H](C)CC

Molecular target: human glucagon-like peptide 1 receptor (GLP-1 R) (human, UniProt P43220 24-463)
Test: cell-based or functional assay

Row | EC50 GLP-1 (nM); cAMP response | Binder
1 | 0.044 nM | B1
2 | 0.074 nM | B2
3 | 0.25 nM | H-H[Aib]EGTFSSELATILDEQAARDFIAWLIAHKITD[dK][dK][dK][dK][dK][dK]([γGlu-C18 diacid])-NH2 [Compound 38]
4 | 0.067 nM | B3
5 | 0.048 nM | H-H[Aib]EGTFTSELATILDK([γGlu-C20 diacid])QAARDFIAWLIQHKITD-OH [Compound 41]
6 | 0.099 nM | B4
7 | 0.32 nM | B5

Molecular target: T1, human GLP-2 receptor (hGLP2-R)
Test: cell-based or functional assay

Row | EC50 GLP-2 (nM); cAMP response | Binder
8 | 0.98 nM | B1
9 | 0.5 nM | B2
10 | 0.89 nM | H-H[Aib]EGTFSSELATILDEQAARDFIAWLIAHKITD[dK][dK][dK][dK][dK][dK]([γGlu-C18 diacid])-NH2 [Compound 38]
11 | 0.33 nM | B3
12 | 0.62 nM | H-H[Aib]EGTFTSELATILDK([γGlu-C20 diacid])QAARDFIAWLIQHKITD-OH [Compound 41]
13 | 0.3 nM | B4
14 | 3.2 nM | B5
